# Measured values published in the supplement of paper PMC12042874.
# ± gives the uncertainty stated by the source.
# Experiment: amyloid nucleation score (Sup35N fusion, yeast selection) (log enrichment); library NNK2; higher = more nucleation; inactive = no reads after selection
# Summary of the method: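 On medium lacking adenine and uracil, psi-negative yeast expressing peptides of 20 random codons fused to Sup35N were grown 7 days at 30°C after a 24-hour induction with 100 μM copper sulfate. Illumina sequencing of input and output plasmid inserts gave the reads, and sequences under 100 input reads were excluded. The nucleation score is the DiMSum log enrichment of output over input reads, centred on the mode score of non-aggregating sequences.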
row,Substance,amyloid nucleation score
1,KMLCYMYVVTHNVTLRHRLY,0.196 ± 0.42
2,SKVRLQSGYTKHERKNFHWL,-0.001 ± 0.34
3,KAYLH,-0.427 ± 0.78
4,IRIGFRMHCLVIQYMNCFIS,2.18 ± 0.075
5,VAGSS,-0.101 ± 0.29
6,FVANSRLLALRLVIGTMLAG,0.214 ± 0.77
7,LHMCHWDSYSE,1.36 ± 0.35
8,SLFVITYRPAYSSDFILNGG,0.763 ± 0.43
9,EVADSRKVSSATWSISSNQR,1.41 ± 0.4
10,HCGYRVIELDLSRLASRSLR,0.195 ± 0.32
11,LYSDMRASDRYWTLSFDCKI,1.88 ± 0.48
12,KTCSDMWYAVRHSNHETSV,1.34 ± 0.52
13,GVRKFLHPTTGPYMYTRCWA,0.44 ± 0.45
14,LCSTHVMKLWFYVSFLLF,-0.397 ± 0.78
15,SFTCALRLGVRGHWLIVTSF,0.276 ± 1
16,QRSAKLRALPEGIKHKKWLM,-0.108 ± 1.1
17,YLCGFNIVPHRYINFRVWTE,4.39 ± 0.11
18,KCVRTTVLHNRRVPDGLTMP,0.678 ± 0.33
19,YMCRVYMSNSINDFDLPHLL,2.06 ± 0.29
20,RPNDMHTT,-0.064 ± 0.26
21,SFDVLL,-0.568 ± 0.64
22,KRSCDQVCLLSRLIGQAGEW,2.26 ± 0.1
23,RVESDTDVIVQIMQWRGVFL,0.334 ± 0.28
24,KTCSACVSIKICLLNDGGNW,9.63 ± 0.052
25,RCGFLWCRHFPATSELGCVL,0.752 ± 0.8

row,Substance,amyloid nucleation score
1,LICGARYINFSGKGNY,0.023 ± 0.29
2,AYKSYGKASSDWMWGLCSHH,-0.108 ± 0.56
3,DYIIVRMCADILSGSVHGAM,-0.068 ± 0.45
4,DVKWPYRLDFVKLYYIYKEG,-1.88 ± 0.53
5,SPIPFPYMYVYSMWCDTLTR,0.505 ± 0.3
6,VSRDLEVH,-0.001 ± 0.31
7,FAFAINRFCDSRRPVLCYWD,-1.21 ± 1.1
8,DYTSCEDVLSVVRPWNYNVE,0.714 ± 0.47
9,SYIGMNQNCFSEQLNNAQTG,0.606 ± 0.18
10,IIGAWKM,0.992 ± 0.33
11,FYRSGEHRRSCRVRVVYGEL,0.397 ± 0.64
12,FKPLGTTEGIYTPVMYSYRG,-0.6 ± 0.27
13,TSRWDWIINSVRHIYWFSCF,4.26 ± 0.12
14,LHRYRNAQVSWE,-0.512 ± 0.74
15,NIFSWEAVEKARYAHSPLNN,-1.44 ± 1.1
16,QYNKCSMALVFCYCS,8.26 ± 0.038
17,IFHVIVWLFEDAFVQVQNYR,4.29 ± 0.078
18,DLGGQMNYLVLMGNDMWNV,-1.01 ± 0.78
19,VSYSGNRYWCSFVNKKAGGN,1.32 ± 0.27
20,IKRSMCICY,0.089 ± 1.1
21,GVTWTV,-0.104 ± 0.25
22,HMNYKYFWGGLFNRMLGQLN,inactive
23,GERRTSLVVKYGRVAGYTYN,-0.273 ± 0.62
24,TFAQYPSLGNSFSGWGYCVK,-2.02 ± 0.75
25,IMWYFIINWHP,4.79 ± 0.074

row,Substance,amyloid nucleation score
1,FLMFQNGCFLNDILVLRNAR,-0.472 ± 0.26
2,FFGLFFNFLLMLINLPKCIV,-1.78 ± 0.75
3,PYMPGRMWSRILSVCSVCCV,1.48 ± 0.58
4,SDCVTFATCWM,0.096 ± 0.49
5,YTGFWFIFTKGHTE,inactive
6,LFDGARINTVNECVYWNS,inactive
7,YFIRRKIRMGGHLLTWSWWI,-0.104 ± 0.49
8,YRAGLGALEGSVLHAGKW,inactive
9,DHLNGASRRMWLLTYFTVFE,inactive
10,SMILVHKSNLQFLGKDDTQS,6.539 ± 0.025
11,GDTVRRLRLEHKSVDLMIQY,3.73 ± 0.087
12,FSFSCEGANFDVYTGMWQGS,-0.073 ± 0.45
13,FVWSFHCCMARWYGLGCSYM,1.1 ± 0.15
14,VVILS,1.28 ± 0.29
15,FLSWCFW,0.841 ± 0.42
16,NGRTRCNPFLFGFKGRPGEC,-1.34 ± 1.1
17,MIWPCMVP,-0.237 ± 1
18,IPRSPCDKENKSRHLHVAWA,-0.372 ± 0.45
19,FKNQGDLQTCLLFD,-0.012 ± 0.79
20,GSFSGKYPRHR,-0.266 ± 1
21,TKEIVEGINTQLYRWTLFG,-0.429 ± 0.25
22,RNFMVDRSGWQSKYVTHSLE,-0.324 ± 0.6
23,NLTYWLVLLRFKKLTDGEHE,-0.259 ± 0.3
24,CTSVKQNDLKGSLIN,inactive
25,ASHLWDGRSAWHTVLSLPVT,1.08 ± 0.18

row,Substance,amyloid nucleation score
1,LSGLRRPNRFLYT,-0.897 ± 0.43
2,IRIACSGLSDRFMNRVHLHS,-0.017 ± 0.46
3,INGNFVIKKCYRGYVS,-0.557 ± 1.1
4,CDAGFEIVLSLIN,-0.828 ± 0.74
5,RCFSRNFEECFENAYTWV,-1.07 ± 0.33
6,TPSDLVDINMDHAFCELCRR,0.413 ± 0.45
7,VNVDWCLLSVLVFNLETNPR,6.699 ± 0.032
8,SGYMAHVLVFLSEGISVPC,inactive
9,LYLCGWVGRSMGFDARPCHF,3.38 ± 0.098
10,RTRRSSTGGRNEASGNRSAG,2.87 ± 0.13
11,SAFTNRYHLPSERVGHWCPV,0.224 ± 0.74
12,NSGCLSLGFRHLSNPWLHS,2.71 ± 0.096
13,DRFMVMFMLKVGVIVWNYGD,0.262 ± 0.54
14,EDKNLVWLLCQGEM,4.43 ± 0.058
15,LVYRGLESQPAMRMWHTSST,-0.207 ± 0.63
16,EDCVMISTCNFLFTINVLEA,6.38 ± 0.065
17,KSRISMPPSVLLDYGLAHNA,-0.598 ± 0.63
18,FSHNTEFRVGCGYEFAVGKA,-0.262 ± 0.79
19,TTDGNQAISVKLMTYLTRPL,-0.187 ± 0.41
20,PKFTMVPNNGMQVGIARNKW,0.43 ± 0.29
21,GAIIDITRFGFLLYF,-0.847 ± 0.34
22,QGGMMWGLLSYCEVLDDSDV,-0.08 ± 1
23,RRFEPKVRKKHQGLFLWYSV,0.028 ± 0.25
24,NECRVDFE,-0.668 ± 0.56
25,LCDIIQAF,-0.626 ± 1.1

row,Substance,amyloid nucleation score
1,CTVCITKGWLMHVWYYAYRW,0.902 ± 0.22
2,PTMFNFKIYQIVRVGLPIHL,-1.53 ± 0.76
3,GHSLYPWSALTPLL,inactive
4,AFATRCCSTLIDPSFVIGTG,0.692 ± 0.41
5,WQRRIGKFCDKQWSFQMMVH,-0.021 ± 0.63
6,EENGCS,1.22 ± 0.24
7,DIGRLTLHGRVSADG,0.748 ± 0.25
8,VHRLC,1.38 ± 0.47
9,CFMFWLCITNGIRPQCPLAS,0.016 ± 0.65
10,NTTSARSERR,-0.212 ± 0.37
11,LYAECFYATILNGDECRWRT,0.344 ± 0.31
12,ADDCLRTCSNKLKTQAGLW,1.38 ± 0.35
13,SVNYFLRGHKPRVNVVPSVE,5.119 ± 0.046
14,KLGTLLSFPTVINVANMIQI,3.8 ± 0.081
15,NWWRD,-0.071 ± 0.43
16,VLNEDVRGKANTVVSSMG,0.413 ± 0.24
17,TFMFDHRIGISDGLSTIMVI,0.923 ± 0.81
18,IRGLGWSAPLRVIRVAPTYV,0.501 ± 0.57
19,KKEVHLSRVYITETYVVGEG,-0.052 ± 0.63
20,VRISAMVITV,-0.684 ± 0.55
21,IDSDKEAFRTFLWTLDMYRL,-0.536 ± 1
22,QVALGNVCNRLYTLMARQAN,-0.283 ± 0.26
23,TTFIRLVIITPWV,2.75 ± 0.15
24,SYGFQVLDAKDVLMLAFVWA,0.255 ± 1.1
25,RAFYLVTSPDFYFCRILGAT,inactive

row,Substance,amyloid nucleation score
1,VRRHADRGGVLAEISNEVVQ,0.608 ± 0.24
2,ASLLSGFNFKSVRHGLRDLG,0.568 ± 0.24
3,FSKLLDGLTNRSESPASSVD,1.69 ± 0.14
4,SMISWATMVSRRDYLYMCV,-0.216 ± 0.45
5,CMQLSYSYSLTFEGQCHLVG,4.27 ± 0.088
6,FLGYIKSLCMYYRRSGMINA,-2.17 ± 0.62
7,MQLNNG,0.075 ± 0.21
8,TWSHTPNALWMDALRSTLQA,1.05 ± 0.38
9,TNADGRTGT,-0.385 ± 0.39
10,CFRRKGALSLIACRW,-0.03 ± 0.46
11,TPMFHILLYFLNWCYCILVA,0.165 ± 1
12,LPMLRHTYNCFSVACIGIFC,-0.204 ± 0.3
13,GVLGTLF,-1.13 ± 0.76
14,GHYLYGFSKNPASENLNAFQ,-1.68 ± 0.75
15,SFYIRGYISFLGHRTW,2.57 ± 0.17
16,NENTLNMMKVWVTGGLSTRK,2.89 ± 0.17
17,CILYKEACEIVIFPGFTVAN,-1.15 ± 1
18,INDSEVMRICLPVGFGHLEG,2.45 ± 0.077
19,RLFANASGVDMEGTGYNRSD,0.359 ± 0.4
20,SHTWKQMRYYLDNWSLY,-0.288 ± 1
21,GSRDHKPWTNRMWFTYTVIR,0.028 ± 0.17
22,GHLLASKLLQSSYETCS,0.286 ± 0.62
23,APVLSDN,-0.07 ± 0.49
24,ENELSPRGCRGEPLA,0.536 ± 0.62
25,VDHLFIRIHSVMIPAL,-0.447 ± 1.1

row,Substance,amyloid nucleation score
1,ITIYQYTNYLYGSWCNHLML,0.157 ± 1
2,RSARDYSVLKSRILSSAGLG,1.32 ± 0.39
3,NLLLLTVRKLNAVNMSTPPY,2.05 ± 0.21
4,TEGHVNSQIRWNLVY,-0.348 ± 0.36
5,SKDMCRRCCIRNLRRMSDSN,-0.443 ± 0.26
6,YYCFHLKEYCRWRSANPHFK,-0.073 ± 1
7,SMRCLIMCATDCRNDMGRLW,5.362 ± 0.039
8,CNWGRTFCRRVSVPVRRSDL,-0.074 ± 1.1
9,HHFTFQAAYFRNIPLESADE,0.906 ± 0.23
10,RTSAPVLRYSVCLNAKYSLG,0.683 ± 0.21
11,SHIPIWRKLSVQFSVKIVLE,-0.637 ± 1.1
12,TMFASHFCWYALYYVCILNF,0.066 ± 1
13,KRKFRMWSQNIFLKVGNILA,-1.47 ± 0.55
14,STSRFTMQQRRKLYKSFCWR,-0.665 ± 1.1
15,TLGREVSKVQNATSFLPMQA,0.926 ± 0.29
16,VALVSGVNNTKDMSRAPNRV,-0.19 ± 0.36
17,MLTFF,-0.409 ± 0.76
18,CHLHIYGTRIERAYHRDFFL,3.4 ± 0.1
19,YIWILWIAMEQNKSWRGQHD,4.44 ± 0.12
